Data taken from patent US20120122239A1.

Tests used:
[1] = target: glycosylated human proBNP (HyTest, Turku, Finland; Catalog No. 8GOB2) (human); assay: sandwich CMIA, capture 15F11, analyte 577.4 pM
[2] = target: human NT-pro B-type natriuretic peptide (HyTest, Turku, Finland; Catalog No. 8NT1) (human); assay: sandwich CMIA, capture 15F11, analyte 577.4 pM
[3] = target: human pro B-type natriuretic peptide (HyTest, Turku, Finland; Catalog No. 8PRO8) (human); assay: sandwich CMIA, capture 15F11, analyte 577.4 pM
[4] = target: glycosylated human proBNP (HyTest, Turku, Finland; Catalog No. 8GOB2) (human); assay: sandwich CMIA, capture 15F11, analyte 0.0 pM (blank)
[5] = target: human NT-pro B-type natriuretic peptide (HyTest, Turku, Finland; Catalog No. 8NT1) (human); assay: as above
[6] = target: human pro B-type natriuretic peptide (HyTest, Turku, Finland; Catalog No. 8PRO8) (human); assay: as above
[7] = target: glycosylated human proBNP (HyTest, Turku, Finland; Catalog No. 8GOB2) (human); assay: sandwich CMIA, capture 15F11, 86.6 pM, against human NT-proBNP
[8] = target: human pro B-type natriuretic peptide (HyTest, Turku, Finland; Catalog No. 8PRO8) (human); assay: as above
[9] = target: human NT-pro B-type natriuretic peptide (HyTest, Turku, Finland; Catalog No. 8NT1) (human); assay: sandwich CMIA, capture 15C4, analyte 577.4 pM
[10] = target: human pro B-type natriuretic peptide (HyTest, Turku, Finland; Catalog No. 8PRO8) (human); assay: sandwich CMIA, capture 15C4, analyte 577.4 pM
[11] = target: glycosylated human proBNP (HyTest, Turku, Finland; Catalog No. 8GOB2) (human); assay: sandwich CMIA, capture 15C4, analyte 288.7 pM
[12] = target: human NT-pro B-type natriuretic peptide (HyTest, Turku, Finland; Catalog No. 8NT1) (human); assay: sandwich CMIA, capture 15C4, analyte 288.7 pM
[13] = target: human pro B-type natriuretic peptide (HyTest, Turku, Finland; Catalog No. 8PRO8) (human); assay: sandwich CMIA, capture 15C4, analyte 288.7 pM
[14] = target: glycosylated human proBNP (HyTest, Turku, Finland; Catalog No. 8GOB2) (human); assay: sandwich CMIA, capture 15F11, analyte 43.3 pM
[15] = target: human NT-pro B-type natriuretic peptide (HyTest, Turku, Finland; Catalog No. 8NT1) (human); assay: sandwich CMIA, capture 15F11, analyte 43.3 pM
[16] = target: human pro B-type natriuretic peptide (HyTest, Turku, Finland; Catalog No. 8PRO8) (human); assay: sandwich CMIA, capture 15F11, analyte 43.3 pM
[17] = target: glycosylated human proBNP (HyTest, Turku, Finland; Catalog No. 8GOB2) (human); assay: sandwich CMIA, capture 15C4, 577.4 pM, against human NT-proBNP
[18] = target: human pro B-type natriuretic peptide (HyTest, Turku, Finland; Catalog No. 8PRO8) (human); assay: as above
[19] = target: glycosylated human proBNP (HyTest, Turku, Finland; Catalog No. 8GOB2) (human); assay: sandwich CMIA, capture 15C4, analyte 86.6 pM
[20] = target: human NT-pro B-type natriuretic peptide (HyTest, Turku, Finland; Catalog No. 8NT1) (human); assay: sandwich CMIA, capture 15C4, analyte 86.6 pM
[21] = target: human pro B-type natriuretic peptide (HyTest, Turku, Finland; Catalog No. 8PRO8) (human); assay: sandwich CMIA, capture 15C4, analyte 86.6 pM
[22] = target: glycosylated human proBNP (HyTest, Turku, Finland; Catalog No. 8GOB2) (human); assay: sandwich CMIA, capture 15F11, analyte 288.7 pM
[23] = target: human NT-pro B-type natriuretic peptide (HyTest, Turku, Finland; Catalog No. 8NT1) (human); assay: sandwich CMIA, capture 15F11, analyte 288.7 pM
[24] = target: human pro B-type natriuretic peptide (HyTest, Turku, Finland; Catalog No. 8PRO8) (human); assay: sandwich CMIA, capture 15F11, analyte 288.7 pM
[25] = target: glycosylated human proBNP (HyTest, Turku, Finland; Catalog No. 8GOB2) (human); assay: sandwich CMIA, capture 15C4, 86.6 pM, against human NT-proBNP
[26] = target: human pro B-type natriuretic peptide (HyTest, Turku, Finland; Catalog No. 8PRO8) (human); assay: as above
[27] = target: glycosylated human proBNP (HyTest, Turku, Finland; Catalog No. 8GOB2) (human); assay: sandwich CMIA, capture 15C4, 288.7 pM, against human NT-proBNP
[28] = target: human pro B-type natriuretic peptide (HyTest, Turku, Finland; Catalog No. 8PRO8) (human); assay: as above
[29] = target: glycosylated human proBNP (HyTest, Turku, Finland; Catalog No. 8GOB2) (human); assay: sandwich CMIA, capture 15F11, 43.3 pM, against human NT-proBNP
[30] = target: human pro B-type natriuretic peptide (HyTest, Turku, Finland; Catalog No. 8PRO8) (human); assay: as above
[31] = target: glycosylated human proBNP (HyTest, Turku, Finland; Catalog No. 8GOB2) (human); assay: sandwich CMIA, capture 15F11, 577.4 pM, against human NT-proBNP
[32] = target: human pro B-type natriuretic peptide (HyTest, Turku, Finland; Catalog No. 8PRO8) (human); assay: as above
[33] = target: glycosylated human proBNP (HyTest, Turku, Finland; Catalog No. 8GOB2) (human); assay: sandwich CMIA, capture 15F11, 288.7 pM, against human NT-proBNP
[34] = target: human pro B-type natriuretic peptide (HyTest, Turku, Finland; Catalog No. 8PRO8) (human); assay: as above

human NT-pro B-type natriuretic peptide (HyTest, Turku, Finland; Catalog No. 8NT1) (human), sequence (chain, as listed by the source): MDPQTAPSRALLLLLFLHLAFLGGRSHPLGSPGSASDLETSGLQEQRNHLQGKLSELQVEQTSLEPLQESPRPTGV
glycosylated human proBNP (HyTest, Turku, Finland; Catalog No. 8GOB2) (human), sequence (chain, as listed by the source): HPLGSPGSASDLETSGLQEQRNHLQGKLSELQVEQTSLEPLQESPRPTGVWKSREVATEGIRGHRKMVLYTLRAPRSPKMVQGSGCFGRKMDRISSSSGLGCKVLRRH

An Analyte rlus [1] of 38700 rlus, an Analyte rlus [2] of 33900 rlus and an Analyte rlus [3] of 11400 rlus were found for “anti-human NT-proBNP/anti-human proBNP labeled monoclonal antibody 29D12 (HyTest, Turku, Finland)” in this work. The Analyte rlus [4] was 912 rlus, the Analyte rlus [5] was 912 rlus and the Analyte rlus [6] was 912 rlus. For the same substance, the % Cross-reactivity [7] was 136%, the % Cross-reactivity [8] was 49.3% and the Analyte rlus [9] was 180000 rlus. For the same substance, the Analyte rlus [10] was 25900 rlus, the Analyte rlus [11] was 1220 rlus and the Analyte rlus [12] was 82800 rlus. It also gave an Analyte rlus [13] of 12100 rlus, an Analyte rlus [14] of 2320 rlus and an Analyte rlus [15] of 1990 rlus. It also gave an Analyte rlus [16] of 1570 rlus, a % Cross-reactivity [17] of 0.3% and a % Cross-reactivity [18] of 14%. The Analyte rlus [19] was 1020 rlus, the Analyte rlus [20] was 19300 rlus and the Analyte rlus [21] was 3830 rlus. It also gave an Analyte rlus [22] of 16400 rlus, an Analyte rlus [23] of 14600 rlus and an Analyte rlus [24] of 6140 rlus. The % Cross-reactivity [25] was 0.7%, the % Cross-reactivity [26] was 16% and the % Cross-reactivity [27] was 0.4%. It also gave a % Cross-reactivity [28] of 13.7%, a % Cross-reactivity [29] of 132% and a % Cross-reactivity [30] of 61.2%. The % Cross-reactivity [31] was 115%, the % Cross-reactivity [32] was 31.8% and the % Cross-reactivity [33] was 113%. It also gave a % Cross-reactivity [34] of 38.3%.
